Test results as given in the supplement of paper PMC12338614.
± gives the uncertainty stated by the source.

B1: library; numbered along this chain (parent)
chain: MEVVDPQQLGMFTEGELMSVGMDTFIHRIDSTEVIYQPRRKRAKLIGKYLMGDLLGEGSYGKVKEVLDSETLCRRAVKILKKKKLRRIPNGEANVKKEIQLLRRLRHKNVIQLVDVLYNEEKQKMYMVMEYCVCGMQEMLDSVPEKRFPVCQAHGYFCQLIDGLEYLHSQGIVHKDIKPGNLLLTTGGTLKISDLGVAEALHPFAADDTCRTSQGSPAFQPPEIANGLDTFSGFKVDIWSAGVTLYNITTGLYPFEGDNIYKLFENIGKGSYAIPGDCGPPLSDLLKGMLEYEPAKRFSIRQIRQHSWFRKKHPPAEAPVPIPPSPDTKDRWRSMTVVPYLEDLHGADEDEDLFDIEDDIIYTQDFTVPGQVPEEEASHNGQRRGLPKAVCMNGTEAAQLSTKSRAEGRAPNPARKACSASSKIRRLSACKQQ

Variants of: B1
Test: STK11 functional score (HeLa growth suppression), rescaled enrichment; synonymous median = 1, nonsense median = 0 (normalised score)
Conditions: with HeLa; variant type: missense
How it was run: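 Functional scores are post/pre-selection log ratios corrected to wild type, rescaled to synonymous and nonsense medians, merged over codons and replicate transfections, and given bootstrapped error. They come from POPCode libraries of codon-optimised STK11 integrated by Bxb1 at an AAVS1 landing pad in HeLa, three regions each transfected three times, with BFP-negative, mCherry-positive integrants sorted by FACS and tiled gDNA amplicons sequenced on NextSeq.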

MEVVDPQQLGMFTEGELMSVGMDTFIHRIDSTEVIYQPRRKRAKLIGKYLMGDLLGEGSYGKVKEVLDSETLCRRAVKILKKKKLRRIPNGEANVKKEIQLLRRLRHKNVIQLVDVLYNEEKQKMYMVMEYCVCGMQEMLDSVPEKRFPVCQAHGYFCQLIDGLEYLHSQGIVHKDIKPGNLLLTTGGTLKISDLGVAEALHPFAADDTCRTSQGSPAFQPPEIANGLDTFSGFKVDIWSAGVTLYNITTGLYPFEGDNIYKLFENIGKGSYAIPGDCGPPLSDLLKGMLEYEPAKRFSIRQIRQHSWFRKKHPPAEAPVPIPPSPDTKDRWRSMTVVPYLEDLHGADEDEDLFDIEDDIIYTQDFTVPGQVPEEEASHNGQRRGLPKAVCMNGTEAAQLSTKSRAEGRAPNWARKACSASSKIRRLSACKQQ [P413W] and MEVVDPQQLGMFTEGELMSVGMDTFIHRIDSTEVIYQPRRKRAKLIGKYLMGDLLGEGSYGKVKEVLDSETLCRRAVKILKKKKLRRIPNGEANVKKEIQLLRRLRHKNVIQLVDVLYNEEKQKMYMVMEYCVCGMQEMLDSVPEKRFPVCQAHGYFCQLIDGLEYLHSQGIVHKDIKPGNLLLTTGGTLKISDLGVAEALHPFAADDTCRTSQGSPAFQPPEIANGLDTFSGFKVDIWSAGVTLYNITTGLYPFEGDNIYKLFENIGKGSYAIPGDCGPPLSDLLKGMLEYEPAKRFSIRQIRQHSWFRKKHPPAEAPVPIPPSPDTKDRWRSMTVVPYLEDLHGADEDEDLFDIEDDIIYTQDFTVPGQVPEEEASHNGQRRGLPKAVCMNGTEAAQLSTKSRAEGRAPNYARKACSASSKIRRLSACKQQ [P413Y] are within error of each other in STK11 functional score: 0.886 ± 0.37 for the first, 1.47 ± 0.26 for the second.

MEVVDPQQLGMFTEGELMSVGMDTFIHRIDSTEVIYQPRRKRAKLIGKYLMGDLLGEGSYGKVKEVLDSETLCRRAVKILKKKKLRRIPNGEANVKKEIQLLRRLRHKNVIQLVDVLYNEEKQKMYMVMEYCVCGMQEMLDSVPEKRFPVCQAHGYFCQLIDGLEYLHSQGIVHKDIKPGNLLLTTGGTLKISDLGVAEALHPFAADDTCRTSQGSPAFQPPEIANGLDTFSGFKVDIWSAGVTLYNITTGLYPFEGDNIYKLFENIGKGSYAIPGDCGPPLSDLLKGMLEYEPAKRFSIRQIRQHSWFRKKHPPAEAPVPIPPSPDTKDRWRSMTVVPYLEDLHGADEDEDLFDIEDDIIYTQDFTVPGQVPEEEASHNGQRRGLPKAVCMNGTEAAQLSTKSRAEGRAPNVARKACSASSKIRRLSACKQQ [P413V] and MEVVDPQQLGMFTEGELMSVGMDTFIHRIDSTEVIYQPRRKRAKLIGKYLMGDLLGEGSYGKVKEVLDSETLCRRAVKILKKKKLRRIPNGEANVKKEIQLLRRLRHKNVIQLVDVLYNEEKQKMYMVMEYCVCGMQEMLDSVPEKRFPVCQAHGYFCQLIDGLEYLHSQGIVHKDIKPGNLLLTTGGTLKISDLGVAEALHPFAADDTCRTSQGSPAFQPPEIANGLDTFSGFKVDIWSAGVTLYNITTGLYPFEGDNIYKLFENIGKGSYAIPGDCGPPLSDLLKGMLEYEPAKRFSIRQIRQHSWFRKKHPPAEAPVPIPPSPDTKDRWRSMTVVPYLEDLHGADEDEDLFDIEDDIIYTQDFTVPGQVPEEEASHNGQRRGLPKAVCMNGTEAAQLSTKSRAEGRAPNSARKACSASSKIRRLSACKQQ [P413S] are within error of each other in STK11 functional score: 1.4 ± 0.24 for the first, 1.46 ± 0.27 for the second.

MEVVDPQQLGMFTEGELMSVGMDTFIHRIDSTEVIYQPRRKRAKLIGKYLMGDLLGEGSYGKVKEVLDSETLCRRAVKILKKKKLRRIPNGEANVKKEIQLLRRLRHKNVIQLVDVLYNEEKQKMYMVMEYCVCGMQEMLDSVPEKRFPVCQAHGYFCQLIDGLEYLHSQGIVHKDIKPGNLLLTTGGTLKISDLGVAEALHPFAADDTCRTSQGSPAFQPPEIANGLDTFSGFKVDIWSAGVTLYNITTGLYPFEGDNIYKLFENIGKGSYAIPGDCGPPLSDLLKGMLEYEPAKRFSIRQIRQHSWFRKKHPPAEAPVPIPPSPDTKDRWRSMTVVPYLEDLHGADEDEDLFDIEDDIIYTQDFTVPGQVPEEEASHNGQRRGLPKAVCMNGTEAAQLSTKSRAEGRAPNTARKACSASSKIRRLSACKQQ [P413T] and MEVVDPQQLGMFTEGELMSVGMDTFIHRIDSTEVIYQPRRKRAKLIGKYLMGDLLGEGSYGKVKEVLDSETLCRRAVKILKKKKLRRIPNGEANVKKEIQLLRRLRHKNVIQLVDVLYNEEKQKMYMVMEYCVCGMQEMLDSVPEKRFPVCQAHGYFCQLIDGLEYLHSQGIVHKDIKPGNLLLTTGGTLKISDLGVAEALHPFAADDTCRTSQGSPAFQPPEIANGLDTFSGFKVDIWSAGVTLYNITTGLYPFEGDNIYKLFENIGKGSYAIPGDCGPPLSDLLKGMLEYEPAKRFSIRQIRQHSWFRKKHPPAEAPVPIPPSPDTKDRWRSMTVVPYLEDLHGADEDEDLFDIEDDIIYTQDFTVPGQVPEEEASHNGQRRGLPKAVCMNGTEAAQLSTKSRAEGRAPNPFRKACSASSKIRRLSACKQQ [A414F] are within error of each other in STK11 functional score: 1.44 ± 0.24 for the first, 1.38 ± 0.14 for the second.

MEVVDPQQLGMFTEGELMSVGMDTFIHRIDSTEVIYQPRRKRAKLIGKYLMGDLLGEGSYGKVKEVLDSETLCRRAVKILKKKKLRRIPNGEANVKKEIQLLRRLRHKNVIQLVDVLYNEEKQKMYMVMEYCVCGMQEMLDSVPEKRFPVCQAHGYFCQLIDGLEYLHSQGIVHKDIKPGNLLLTTGGTLKISDLGVAEALHPFAADDTCRTSQGSPAFQPPEIANGLDTFSGFKVDIWSAGVTLYNITTGLYPFEGDNIYKLFENIGKGSYAIPGDCGPPLSDLLKGMLEYEPAKRFSIRQIRQHSWFRKKHPPAEAPVPIPPSPDTKDRWRSMTVVPYLEDLHGADEDEDLFDIEDDIIYTQDFTVPGQVPEEEASHNGQRRGLPKAVCMNGTEAAQLSTKSRAEGRAPNPGRKACSASSKIRRLSACKQQ [A414G] and MEVVDPQQLGMFTEGELMSVGMDTFIHRIDSTEVIYQPRRKRAKLIGKYLMGDLLGEGSYGKVKEVLDSETLCRRAVKILKKKKLRRIPNGEANVKKEIQLLRRLRHKNVIQLVDVLYNEEKQKMYMVMEYCVCGMQEMLDSVPEKRFPVCQAHGYFCQLIDGLEYLHSQGIVHKDIKPGNLLLTTGGTLKISDLGVAEALHPFAADDTCRTSQGSPAFQPPEIANGLDTFSGFKVDIWSAGVTLYNITTGLYPFEGDNIYKLFENIGKGSYAIPGDCGPPLSDLLKGMLEYEPAKRFSIRQIRQHSWFRKKHPPAEAPVPIPPSPDTKDRWRSMTVVPYLEDLHGADEDEDLFDIEDDIIYTQDFTVPGQVPEEEASHNGQRRGLPKAVCMNGTEAAQLSTKSRAEGRAPNPLRKACSASSKIRRLSACKQQ [A414L] are within error of each other in STK11 functional score: 1.21 ± 0.26 for the first, 1.16 ± 0.34 for the second.

First: MEVVDPQQLGMFTEGELMSVGMDTFIHRIDSTEVIYQPRRKRAKLIGKYLMGDLLGEGSYGKVKEVLDSETLCRRAVKILKKKKLRRIPNGEANVKKEIQLLRRLRHKNVIQLVDVLYNEEKQKMYMVMEYCVCGMQEMLDSVPEKRFPVCQAHGYFCQLIDGLEYLHSQGIVHKDIKPGNLLLTTGGTLKISDLGVAEALHPFAADDTCRTSQGSPAFQPPEIANGLDTFSGFKVDIWSAGVTLYNITTGLYPFEGDNIYKLFENIGKGSYAIPGDCGPPLSDLLKGMLEYEPAKRFSIRQIRQHSWFRKKHPPAEAPVPIPPSPDTKDRWRSMTVVPYLEDLHGADEDEDLFDIEDDIIYTQDFTVPGQVPEEEASHNGQRRGLPKAVCMNGTEAAQLSTKSRAEGRAPNPKRKACSASSKIRRLSACKQQ [A414K]
Second: MEVVDPQQLGMFTEGELMSVGMDTFIHRIDSTEVIYQPRRKRAKLIGKYLMGDLLGEGSYGKVKEVLDSETLCRRAVKILKKKKLRRIPNGEANVKKEIQLLRRLRHKNVIQLVDVLYNEEKQKMYMVMEYCVCGMQEMLDSVPEKRFPVCQAHGYFCQLIDGLEYLHSQGIVHKDIKPGNLLLTTGGTLKISDLGVAEALHPFAADDTCRTSQGSPAFQPPEIANGLDTFSGFKVDIWSAGVTLYNITTGLYPFEGDNIYKLFENIGKGSYAIPGDCGPPLSDLLKGMLEYEPAKRFSIRQIRQHSWFRKKHPPAEAPVPIPPSPDTKDRWRSMTVVPYLEDLHGADEDEDLFDIEDDIIYTQDFTVPGQVPEEEASHNGQRRGLPKAVCMNGTEAAQLSTKSRAEGRAPNPDRKACSASSKIRRLSACKQQ [A414D]
The STK11 functional score of the first is higher: 1.55 ± 0.26 for the first, 0.946 ± 0.29 for the second.

MEVVDPQQLGMFTEGELMSVGMDTFIHRIDSTEVIYQPRRKRAKLIGKYLMGDLLGEGSYGKVKEVLDSETLCRRAVKILKKKKLRRIPNGEANVKKEIQLLRRLRHKNVIQLVDVLYNEEKQKMYMVMEYCVCGMQEMLDSVPEKRFPVCQAHGYFCQLIDGLEYLHSQGIVHKDIKPGNLLLTTGGTLKISDLGVAEALHPFAADDTCRTSQGSPAFQPPEIANGLDTFSGFKVDIWSAGVTLYNITTGLYPFEGDNIYKLFENIGKGSYAIPGDCGPPLSDLLKGMLEYEPAKRFSIRQIRQHSWFRKKHPPAEAPVPIPPSPDTKDRWRSMTVVPYLEDLHGADEDEDLFDIEDDIIYTQDFTVPGQVPEEEASHNGQRRGLPKAVCMNGTEAAQLSTKSRAEGRAPNPIRKACSASSKIRRLSACKQQ [A414I] and MEVVDPQQLGMFTEGELMSVGMDTFIHRIDSTEVIYQPRRKRAKLIGKYLMGDLLGEGSYGKVKEVLDSETLCRRAVKILKKKKLRRIPNGEANVKKEIQLLRRLRHKNVIQLVDVLYNEEKQKMYMVMEYCVCGMQEMLDSVPEKRFPVCQAHGYFCQLIDGLEYLHSQGIVHKDIKPGNLLLTTGGTLKISDLGVAEALHPFAADDTCRTSQGSPAFQPPEIANGLDTFSGFKVDIWSAGVTLYNITTGLYPFEGDNIYKLFENIGKGSYAIPGDCGPPLSDLLKGMLEYEPAKRFSIRQIRQHSWFRKKHPPAEAPVPIPPSPDTKDRWRSMTVVPYLEDLHGADEDEDLFDIEDDIIYTQDFTVPGQVPEEEASHNGQRRGLPKAVCMNGTEAAQLSTKSRAEGRAPNPMRKACSASSKIRRLSACKQQ [A414M] are within error of each other in STK11 functional score: 1.33 ± 0.28 for the first, 1.56 ± 0.22 for the second.

MEVVDPQQLGMFTEGELMSVGMDTFIHRIDSTEVIYQPRRKRAKLIGKYLMGDLLGEGSYGKVKEVLDSETLCRRAVKILKKKKLRRIPNGEANVKKEIQLLRRLRHKNVIQLVDVLYNEEKQKMYMVMEYCVCGMQEMLDSVPEKRFPVCQAHGYFCQLIDGLEYLHSQGIVHKDIKPGNLLLTTGGTLKISDLGVAEALHPFAADDTCRTSQGSPAFQPPEIANGLDTFSGFKVDIWSAGVTLYNITTGLYPFEGDNIYKLFENIGKGSYAIPGDCGPPLSDLLKGMLEYEPAKRFSIRQIRQHSWFRKKHPPAEAPVPIPPSPDTKDRWRSMTVVPYLEDLHGADEDEDLFDIEDDIIYTQDFTVPGQVPEEEASHNGQRRGLPKAVCMNGTEAAQLSTKSRAEGRAPNPERKACSASSKIRRLSACKQQ [A414E] and MEVVDPQQLGMFTEGELMSVGMDTFIHRIDSTEVIYQPRRKRAKLIGKYLMGDLLGEGSYGKVKEVLDSETLCRRAVKILKKKKLRRIPNGEANVKKEIQLLRRLRHKNVIQLVDVLYNEEKQKMYMVMEYCVCGMQEMLDSVPEKRFPVCQAHGYFCQLIDGLEYLHSQGIVHKDIKPGNLLLTTGGTLKISDLGVAEALHPFAADDTCRTSQGSPAFQPPEIANGLDTFSGFKVDIWSAGVTLYNITTGLYPFEGDNIYKLFENIGKGSYAIPGDCGPPLSDLLKGMLEYEPAKRFSIRQIRQHSWFRKKHPPAEAPVPIPPSPDTKDRWRSMTVVPYLEDLHGADEDEDLFDIEDDIIYTQDFTVPGQVPEEEASHNGQRRGLPKAVCMNGTEAAQLSTKSRAEGRAPNPCRKACSASSKIRRLSACKQQ [A414C] are within error of each other in STK11 functional score: 1.54 ± 0.14 for the first, 1.59 ± 0.29 for the second.
